The supplement of paper PMC9170038

The sequences below were run on MS2 coat protein (assay: apparent KD of MS2 coat protein, switch ON state; designed switch direction (-1 OFF switch, 1 ON switch): -1; higher = weaker reporter binding). Settings: FMN input: 0 or 200 uM; Eterna round: R93 (includes R88 designs).
Outline: (§1)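 Illumina sequencing clusters served as templates for on-chip transcription of the designed RNA switches. SNAP-549-labelled MS2 coat protein was then titrated in twofold steps from 0.7 or 1.5 nM to 3 µM, allowing 0.8–1.5 h per step at first and 10–20 min per step later. The buffer held 100 mM Tris-HCl pH 7.5, 80 mM KCl and 4 mM MgCl2, without or with constant ligand. Apparent KD is the median per design of normalised cluster binding-curve fits.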

Sequence | apparent KD of MS2 coat protein
CUCAAGUGAGGAUAUCAGUAGUAAAAAAAUAAAAUUACUACUGAGAAGGCACAUGAGGAUCACCCAUGUUCCAA [EX4 342: Super Stable 42] | 124 nM
AGCUAGUCAGGAUAUACGCAAACGAACGAAGCAGAGAAGGGACAUGAGGAUCACCCAUGUAGAAGGGACUAGCA [Diamond 31] | 28.8 nM
AAAACUGGAGGAUAUACAUGAGGAUCACCCAUGUGUGGAUGAGCUGUGUCGGCGUCAGGUAGAAGGCCACAAAA [Gilly Gone Silly 35 - Jieux - Exclusion 3] | 36.3 nM
GGAAAACAUGAGGAUCACCCAUGUGAGGAUAUCGAUGUCCAAAAAAGAGUGCGGGACUCGAGAAGGCACUUGGA [salish99-ex1-43] | 49.3 nM
GAAAAGAGAGGAUAUACUUUGGGAAAAGAAAAGAUGAUGUUACAUGAGGAUCACCCAUGUAGAAGGCUCAAAAA [Mat - Exclusion 2 - Mod - D156] | 27.1 nM
GAAAAGUCAGGAUAUGUGGAAAAAAUAAAAAAAAUAAAAACACAGAAGGGACAUGAGGAUCACCCAUGUAAAAG [Mat - Exclusion 4 - Mayanna - D141] | 101 nM
AAACCACAUGAGGAUCACCCAUGUGAGGAUAUGAACGAAAAUAAAUAAAAAUAAAAGUUCAGAAGGCACAAAAA [66%, Wbt, 12] | 21.3 nM
AGUACUACAGGAUAUACGAGGGAGGUCCACGUGAACCUUAUACAUGAGGAUCACCCAUGUAGAAGGGUAGUACA [Ex2 Design 108: Super Stable 8] | 50.9 nM
UAAAACCUAGGAUAUACAUGAGGAUCACCCAUGUGGCACUCCGCAGGCAUUGUUCCCAGUAGAAGGAGGACACG [Inan] | 20.6 nM
AAGAACGGAGGAUAUACAUGAGGAUCACCCAUGUAAAAGAAAGAAGGGAAAGAGAAAAGUAGAAGGCCGAAGAA [Usermaatre-setepenamun Pedubast] | 28.1 nM
AAGAAUGCAGGAUAUACAUGAGGAUCACCCAUGUAAAAGAAAGAAAGGGAAAAGAAAAGUAGAAGGGCAAAGAA [Usermaatre-setepenamun Osorkon II] | 35.8 nM
AGAAAACAUGAGGAUCACCCAUGUCAGGAUAUGAAAAAGAAAAGAAAAGAAAGAAGAAUCAGAAGGGACAAGAA [Senedj] | 38.2 nM
GAAAAACAUGAGGAUCACCCAUGUAAGGAUAUGCUGAAAAACACGGAAAAAACGUGCAGCAGAAGGUACAAAAA [Mat - Exclusion 1 - Eli mod - D92] | 15.8 nM
AAGAAUGGAGGAUAUACAAGAAAGAAAGAAAAGAAAAGAAAACAUGAGGAUCACCCAUGUAGAAGGCCAUAGAA [EteRNA is fun!] | 24.9 nM
AAGAAGUGAGGAUAUCGAAGACUGUCGAAAAGACAGUCGAACGAGAAGGCACAUGAGGAUCACCCAUGUGGGAA [Marsurpial 65% 6] | 77.1 nM
AAAGGACGAGGAUAUACAUGAGGAUCACCCAUGUAAAAAGCAUAAUAAAAGAACUUAUGUAGAAGGCGUCCAAA [69%, Moding Meechl, 5] | 41 nM
AGCUAGUGAGGAUAUGCGAACAUGUCAAAAGACGUGAAGGGACAUGAGGAUCACCCAUGUAGAAGGCACUAGCA [JL 74% mod 3] | 26.4 nM
AAAAAACAUGAGGAUCACCCAUGUGAGGAUAUGCAAAACCCAUAUAAAAAGGGAAAAAGCAGAAGGCGCAAAAA [Starry Exclusion 1.4 (wbt round 1 mod)] | 26.5 nM
AGUCUGAGAGGAUAUACAUGGAAAAAAAAAGUUAGAUCCCUACAUGAGGAUCACCCAUGUAGAAGGCUCUGACA [Ex2 Design 149: Sub-opt 13] | 45.8 nM

Sequence | apparent KD of MS2 coat protein
AAAAAGUGAGGAUAUGGUAAAAAAAAAAAAAAAAAAAACCUCCAGAAGGCACAUGAGGAUCACCCAUGUCAAAA [Jolly's Folly 3 - Jieux - Exclusion 4] | 44.7 nM
AACAGGUUAGGAUAUAUGUAACAAAUAAAAAAAAUAUAAACAUAGAAGGAACAUGAGGAUCACCCAUGUUAACA [May 29] | 29.7 nM
AGAAAGCGAGGAUAUACUAAGAAACCUCAAAGAAAGAAGAAACAUGAGGAUCACCCAUGUAGAAGGCGCAAAGA [JR_Exc002_Sub002] | 28.3 nM
AACAGGAGAGGAUAUACAUGAGGAUCACCCAUGUAGGAAACAAGCAGAGUACCAAAAAGUAGAAGGCUCAUGGA [Ruby 32] | 28.1 nM
AAGAACUGAGGAUAUACAUGAGGAUCACCCAUGUAAAAGAAAGAAAGGGAAAAGAAAAGUAGAAGGCAGAAGAA [Menmaatre-setpenptah Ramesses XI] | 51.1 nM
AAAAAACAUGAGGAUCACCCAUGUGAGGAUAUGCGAAAAAAAAAAUAAAAAAAAAAAAGCAGAAGGCACAAAAA [LROPPY Exclusion 1 - v05_deltaG=1.64] | 37.6 nM
GAAGAACAUGAGGAUCACCCAUGUCAGGAUAUACAGAAGGGAAUAAUAUAAUCUGGAAGUAGAAGGGACAAGAA [Ex 1 May 45] | 31.8 nM
AGGUUGUCAGGAUAUGCGUGAAGAAUAAAACAAAUAACAACGCAGAAGGGACAUGAGGAUCACCCAUGUUAAGA [May 47] | 39.8 nM
AGCUCGGUAGGAUAUACAAAAUGAUUGCGAAAGCAAUCAACACAUGAGGAUCACCCAUGUAGAAGGACCGAGCA [Mat - Exclusion 2 - JL-Eli mod - D42] | 15.2 nM
GAAAAUCGAGGAUAUACAUGAGGAUCACCCAUGUCAAAAAAUGACUACACAAAAGAAAGUAGAAGGCGAUAAAG [Mat - Exclusion 3 - Mayanna mod - D130] | 28.8 nM
GCUGUGGUAGGAUAUACAUGAGGAUCACCCAUGUGAGAGAAAAAAGUGAGAAAGAAAAGUAGAAGGACCGUAGG [salish99-ex3-101] | 49 nM
GCUGGGCAAGGAUAUACAUGAGGAUCACCCAUGUGAGAGAAAAAAGUGAGAAAGAAAAGUAGAAGGUGCUUAGG [salish99-ex3-119] | 45.8 nM
AACAUACAUGAGGAUCACCCAUGUCAGGAUAUGCCGGGUUAGAACCAACUAAAAAAACGUAGAAGGGACAAAAA [Bilbo Confounded 5 - Jieux - Exclusion 1] | 63.3 nM
GGUUGACAAGGAUAUACAUGAGGAUCACCCAUGUGAGAGAAAAAAGUGAGAAAGAAAAGUAGAAGGUGUUGACG [salish99-ex3-62] | 31 nM
UAAAGACAUGAGGAUCACCCAUGUGAGGAUAUCGGAGAUAACAGAACAUCAAGUUCAGCGAGAAGGCACAGGAA [JR_Exc001_Sub403] | 47 nM
AGGAAACAUGAGGAUCACCCAUGUGAGGAUAUGAGAAAGAAAAGAAAAGAAAGAAGAAUCAGAAGGCACAAGAA [Raneb] | 42.8 nM
AAGUUGCUAGGAUAUACUUGGGCAACAAAUGAACCAAUAUAACAUGAGGAUCACCCAUGUAGAAGGAGCAGAAA [JR_Exc002_Sub301] | 35.2 nM
AAAAAACAUGAGGAUCACCCAUGUGAGGAUAUGCGAAAAAAAAAAUAAAAAAAAAAAAGUAGAAGGCACACCAA [Mat - Exclusion 1 - Eli mod - D55] | 41.9 nM
AAAGAUGCAGGAUAUACAUGAGGAUCACCCAUGUUAGACCUGAAAAGGGAAAAAGAAAGUAGAAGGGCAUAAAA [Ex 3 May 32] | 13.4 nM

These sequences were tested on MS2 coat protein (assay: apparent KD of MS2 coat protein, switch OFF state (with FMN for OFF switches, without FMN for ON switches); designed switch direction (-1 OFF switch, 1 ON switch): 1; higher = weaker reporter binding). Settings: FMN input: 0 or 200 uM; Eterna round: R93 (includes R88 designs).
Outline: as §1

Sequence | apparent KD of MS2 coat protein
AACAAACAUGAGGAUCACCCAUGUAGAAACAUGGGAGGAUAUACGAAGACGAAAGUCAAAGUAGAAGGCCUAAAAA [Garnet 91] | 60.9 nM
ACCCGACAUGAGGAUCACCCAUGUAAACAAUCAUGAGGAUAUCCGGAGCAAAUGCUCAAGGGAGAAGGCAUAAAAG [Onrequus] | 132 nM
AUGAGGAAGAGAGAGGAUAUCCAAAGGAAAACAUGAGGAUCACCCAUGUAAAAGGUAGGAAAUUGGGAGAAGGCUCAAGAGAGAG [salish99-ss2-065] | 44.7 nM
AACAAUCUAUCUGAGGAUAUCAUUUCAAAGACAUGAGGAUCACCCAUGUGCAGGAAAACUGCAAAUGAGAAGGCAGAUAGAUUGA [SS2: 1107] | 14.5 nM
UAUCAUUACACGAAGGAUAUCGAUAAUUGAACAUGAGGAUCACCCAUGUGCCAUCCCUUACAGUUCGAGAAGGUCGAGGGUGAAG [JR_SS002_Sub707] | 299 nM
